Source: paper PMC10977726

T1: biotin-PDGF-bb (human), P01127
T1 chain: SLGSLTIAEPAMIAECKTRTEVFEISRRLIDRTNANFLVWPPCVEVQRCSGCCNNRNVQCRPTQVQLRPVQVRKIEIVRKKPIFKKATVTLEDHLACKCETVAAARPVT


The binders below were run against biotin-VEGF-A (8-109) (human) (assay: SPR; […]; Biacore S200, […] (PBS with 0.05% Tween 20, pH 7.4); […]).
biotin-VEGF-A (8-109) (human), sequence (P15692 whole entry): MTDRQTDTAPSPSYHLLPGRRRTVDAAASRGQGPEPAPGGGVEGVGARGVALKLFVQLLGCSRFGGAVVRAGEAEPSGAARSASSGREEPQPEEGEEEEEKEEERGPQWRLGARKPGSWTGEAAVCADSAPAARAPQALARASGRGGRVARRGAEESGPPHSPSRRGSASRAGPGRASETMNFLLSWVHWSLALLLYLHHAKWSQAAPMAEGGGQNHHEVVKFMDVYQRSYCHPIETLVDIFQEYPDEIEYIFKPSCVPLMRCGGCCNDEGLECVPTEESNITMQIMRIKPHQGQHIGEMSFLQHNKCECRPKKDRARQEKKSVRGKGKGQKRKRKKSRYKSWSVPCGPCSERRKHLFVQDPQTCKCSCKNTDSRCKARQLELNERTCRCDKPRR

| Kd [µM] | Binder |
| --- | --- |
| > 1.5 | GCMTPWFPFTINCKQDSDCLAGCVCGPNGFCG (designed binder) [V-EET-3] |
| > 50 | GCAGKSCKKWSSVHCDAGCFCQIGQQVVYIPGCV (designed binder) [V-MCH-1] |
| > 20 | GCTTPWVPHHIMCKQDSDCLAGCVCGPNGFCG (designed binder) [V-EET-1] |
| > 30 | GCQTPWFPHQILCKQDSDCLAGCVCGPNGFCG (designed binder) [V-EET-2] |
| > 3.6 | VGECSQPWFINMCNMVDCCSQFGYCGKGPKYCG (designed binder) [V-AMP-1] |

Molecular target: T1, biotin-PDGF-bb (human), P01127
Test: as above

| Kd [µM] | Binder |
| --- | --- |
| > 6.7 | GCFDDNPFIACKQDSDCLAGCVCWYDTWCG (designed binder, modifications not checked) [P-EET-6] |
| > 20 | GCSHWLQEMFGFCKQDSDCLAGCVCEISETCG (designed binder, modifications not checked) [P-EET-2] |
